Measured values published in paper PMC9918506, “Structural insights into pathogenic mechanism of hypohidrotic ectodermal dysplasia caused by ectodysplasin A variants” (Nature Communications, 2023).

B1: EDA·A1 TNF homology domain (EDA·A1THD, residues 233–391), wild type [human] / EDAR cysteine-rich domains (EDAR_(CRDS), residues 30–150), MBP tag removed [human] (parent)
chain 1: GPSGAADKAGTRENQPAVVHLQGQGSAIQVKNDLSGGVLNDWSRITMNPKVFKLHPRSGELEVLVDGTYFIYSQVEVYYINFTDFASYEVVVDEKPFLQCTRSIETGKTNYNTCYTAGVCLLKARQKIAVKMVHADISINMSKHTTFFGAIRLGEAPAS
chain 2: GGSGGSGGSGGSNCGENEYYNQTTGLCQECPPCGPGEEPYLSCGYGTKDEDYGCVPCPAEKFSKGGYQICRRHKDCEGFFRATVLTPGDMENDAECGPCLPGYYMLENRPRNIYGMVCYSCLLAPPNTKECVG

Variants of: B1
Assay: SPR
Settings: with EDAR cysteine-rich domains (EDAR_(CRDS), residues 30–150), 50, 25, 12.5, 6.25, 3.125 nM

| Variant | Kd [nM] |
| --- | --- |
| chain 1 R44C | 35.9 |
